The source of these data is article PMC11414387.

In this assay the target is FBXO11 (UniProt Q86XK2). Kind of assay: co-IP of exogenous proteins. The conditions noted are these: reference: wild type.

For the substance β-catenin (from UniProt P35222) S33A, the “binding against the reference” value (sites S33) is “lost”.
Turning to β-catenin (from UniProt P35222) S37A, the “binding against the reference” value (sites S37) is listed as “lost”.
